Patent US20090099080A1 (UNIVERSITY OF MASSACHUSETTS, published 2009)

Target: T1, GST (UniProt P08515 1-218 = GST)
T1 construct: Control for the GST fusion baits; also called glutathione S-transferase (control)
Test: GST pull down of recombinant CypD, CypD immunoblot

T1 sequence (P08515 whole entry, the tested form may be a part): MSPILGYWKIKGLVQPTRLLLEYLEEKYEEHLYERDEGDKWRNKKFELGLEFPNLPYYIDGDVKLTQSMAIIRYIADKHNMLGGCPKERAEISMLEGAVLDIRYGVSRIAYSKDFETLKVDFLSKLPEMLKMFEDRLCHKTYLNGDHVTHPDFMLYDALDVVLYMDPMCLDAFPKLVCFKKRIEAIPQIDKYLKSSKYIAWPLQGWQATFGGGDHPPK

- binding result: no binding
B1: recombinant CypD (purified, in solution) (enzyme)
chain: not shown
